Test results published in PMC5601897, “The catalytic subunit of DNA polymerase δ inhibits γTuRC activity and regulates Golgi-derived microtubules” (Nature Communications, 2017).

Target: γ-tubulin ring complex (γTuRC), purified (human (endogenous in HEK293T), UniProt P23258 1-451; Q9BSJ2 1-902; Q96CW5 1-907; Q9UGJ1 1-667; Q96RT8 1-1024; Q96RT7 …)
Test: cell-based or functional assay

B1: recombinant FLAG-PolD1 (wild type), purified (natural protein, human, UniProt P28340 1-1107, looked up)
chain: MDGKRRPGPGPGVPPKRARGGLWDDDDAPRPSQFEEDLALMEEMEAEHRLQEQEEEELQSVLEGVADGQVPPSAIDPRWLRPTPPALDPQTEPLIFQQLEIDHYVGPAQPVPGGPPPSRGSVPVLRAFGVTDEGFSVCCHIHGFAPYFYTPAPPGFGPEHMGDLQRELNLAISRDSRGGRELTGPAVLAVELCSRESMFGYHGHGPSPFLRITVALPRLVAPARRLLEQGIRVAGLGTPSFAPYEANVDFEIRFMVDTDIVGCNWLELPAGKYALRLKEKATQCQLEADVLWSDVVSHPPEGPWQRIAPLRVLSFDIECAGRKGIFPEPERDPVIQICSLGLRWGEPEPFLRLALTLRPCAPILGAKVQSYEKEEDLLQAWSTFIRIMDPDVITGYNIQNFDLPYLISRAQTLKVQTFPFLGRVAGLCSNIRDSSFQSKQTGRRDTKVVSMVGRVQMDMLQVLLREYKLRSYTLNAVSFHFLGEQKEDVQHSIITDLQNGNDQTRRRLAVYCLKDAYLPLRLLERLMVLVNAVEMARVTGVPLSYLLSRGQQVKVVSQLLRQAMHEGLLMPVVKSEGGEDYTGATVIEPLKGYYDVPIATLDFSSLYPSIMMAHNLCYTTLLRPGTAQKLGLTEDQFIRTPTGDEFVKTSVRKGLLPQILENLLSARKRAKAELAKETDPLRRQVLDGRQLALKVSANSVYGFTGAQVGKLPCLEISQSVTGFGRQMIEKTKQLVESKYTVENGYSTSAKVVYGDTDSVMCRFGVSSVAEAMALGREAADWVSGHFPSPIRLEFEKVYFPYLLISKKRYAGLLFSSRPDAHDRMDCKGLEAVRRDNCPLVANLVTASLRRLLIDRDPEGAVAHAQDVISDLLCNRIDISQLVITKELTRAASDYAGKQAHVELAERMRKRDPGSAPSLGDRVPYVIISAAKGVAAYMKSEDPLFVLEHSLPIDTQYYLEQQLAKPLLRIFEPILGEGRAEAVLLRGDHTRCKTVLTGKVGGLLAFAKRRNCCIGCRTVLSHQGAVCEFCQPRESELYQKEVSHLNALEERFSRLWTQCQRCQGSLHEDVICTSRDCPIFYMRKKVRKDLEDQEQLLRRFGPPGPEAW
In the case of B1, the “IC50 of inhibition of in vitro microtubule nucleation by purified γTuRCs reconstituted with CDK5RAP2(51–200) (28 nM); PolD1 at various concentrations” value is reported as 98 nM.
